Residue numbers refer to the chain shown, from its start. Like-named read-outs stand apart in the source and are kept apart here.
B1: human β-enolase: β-enolase purified from human skeletal muscle (protein, UniProt P13929 2-434, looked up)
Beta-enolase: AMQKIFAREILDSRGNPTVEVDLHTAKGRFRAAVPSGASTGIYEALELRDGDKGRYLGKGVLKAVENINNTLGPALLQKKLSVVDQEKVDKFMIELDGTENKSKFGANAILGVSLAVCKAGAAEKGVPLYRHIADLAGNPDLILPVPAFNVINGGSHAGNKLAMQEFMILPVGASSFKEAMRIGAEVYHHLKGVIKAKYGKDATNVGDEGGFAPNILENNEALELLKTAIQAAGYPDKVVIGMDVAASEFYRNGKYDLDFKSPDDPARHITGEKLGELYKSFIKNYPVVSIEDPFDQDDWATWTSFLSGVNIQIVGDDLTVTNPKRIAQAVEKKACNCLLLKVNQIGSVTESIQACKLAQSNGWGVMVSHRSGETEDTFIADLVVGLCTGQIKTGAPCRSERLAKYNQLMRIEEALGDKAIFAGRKFRNPKAK
B2: muscle-specific enzyme from rat: rat muscle β-enolase (protein, UniProt P15429 2-434, looked up)
Beta-enolase: B1 Beta-enolase with G54S, N67H, N70K, Q78E, I143V, T271S, N311D, I421V
B3: muscle-specific enzyme from pig: pig muscle β-enolase (protein, UniProt Q1KYT0 2-434, looked up)
Beta-enolase: AMQKIFAREILDSRGNPTVEVDLHTAKGRFRAAVPSGASTGIYEALELRDGDKSRYLGKGVLKAVEHINKTLGPALLEKKLSVVDQEKVDKFMIELDGTENKSKFGANAILGVSLAVCKAGAAEKGVPLYRHIADLAGNPDLVLPVPAFNVINGGSHAGNKLAMQEFMILPVGASSFREAMRIGAEVYHHLKGVIKGKYGKDATNVGDEGGFAPNILENNEALELLKTAIQAAGYPDKVVIGMDVAASEFYRNGKYDLDFKSPDDPSRHITGEKLGELYKSFIKNYPVVSIEDPFDQDDWKTWTSFLSGVNIQIVGDDLTVTNLKRIAQAVEKKACNCLLLKVNQIGSVTESIQACKLAQSNGWGVMVSHRSGETEDTFIADLVVGLCTGQIKTGAPCRSERLAKYNQLMRIEEALGDKAVFAGRKFRNPKAK

Key:
[1] = cited from earlier work
Excerpt: The ion-exchange chromatography was used to purify both α- and β-enolases. The method employed in this work takes advantage of different isoelectric point values calculated for human α- and β-enolases (7.38 and 7.72, respectively), muscle-specific enzymes from rat (7.45) and pig (8.8–9.0), [21]. The summary of human enolase isoenzymes purification is presented in Supplementary Table 1. The purity of the enolase preparations was examined at every purification step by SDS-PAGE and is shown on Supplementary Fig. S1.

[2] = system: anti-β-enolase antibodies; assay: ELISA test with pin-tethered peptides; format: binding, rabbit; conditions: relative to N^193VIKEKYGKDATN^205-GG-pin
Experimental: The peptides corresponding to predicted epitopes were synthesized using NCP Block of 96 hydroxypropylmethacrylate pins (MIMOTOPES, Clayton, Victoria, Australia) according to earlier described protocol. The synthesis was performed in 96-well plates, following the one-pin – one-peptide approach. Each pin was submerged in 100 μl of the solution containing 60 mM F-moc amino acid and an equimolar amount of diisopropylcarbodiimide and N-hydroxybenzotriazole as coupling reagents. Each coupling cycle lasted 4 h., and to assess the completion of the coupling reaction; pins were tested with 10 mM bromophenol blue for the presence of free amino groups. Peptides were deprotected and pins washed with MeOH, 0.5% acetic acid in MeOH, MeOH, dried, and stored at − 20 °C. […]
The TBST soaked pins were transferred to a 96-well plate filled with 200 μl of 1% BSA in TBST and incubated for 60 min at room temperature. […] The attached antibodies were detected after incubation of the pins with goat-anti-human IgG-alkaline phosphatase (AP) conjugate (ICN Biomedicals, Aurora, Ohio, USA, diluted according to the manufacturer's recommendations). The AP activity was measured to determine the level of the bound conjugate. […] The enzymatic reaction was stopped by removal of pins from the plate, and the amount of released p-nitrophenol was measured at 406 nm in a plate reader (PerkinElmer). […]

[3] = storage stability (enolase activity); format: physicochemical; conditions: 7.5 mM imidazole-HCl pH 6.8, 2.5 mM MgSO4, 50 mM NaCl, 50% glycerol, 4 °C
Experimental: At all stages of the enzyme purification, the magnesium sulfate and temperature set at 4 °C were used to prevent the loss of the enolase activity. Magnesium ions are essential for both catalysis and stability of the enolase dimer, [39]. Purification of β-enolase from human muscle tissue was performed according to the procedure described earlier. Briefly, 110 g of frozen striated muscle was homogenized in deionized water containing 3 mM MgSO4 and protease inhibitors PMSF (phenylmethylsulfonyl fluoride) and aprotinin (2 µg/ml). Homogenization was performed in PT3100D homogenizer (DanLab, Poland) at 4 °C for 10 min. The crude protein extract was incubated at 53–54 °C for 3 min, then cooled to 4 °C and denatured proteins removed by centrifugation at 9000 g for 45 min. The supernatant was fractionated with ammonium sulfate at 4 °C, by adding solid salt in small portions and by stirring gently. The mixture was left overnight at 4 °C after reaching 60% saturation of (NH4)2SO4 and precipitated proteins were centrifuged at 9000 g for 45 min and discarded. Protein precipitation was continued by adding solid (NH4)2SO4 up to 80% saturation, and after overnight storage at 4 C the precipitated proteins were centrifuged. The pellet was dissolved in 20 mM Tris-HCl buffer pH 9.0, containing 3 mM MgSO4 and 1 mM β − mercaptoethanol and dialyzed against this buffer. […]

[4] = muscle-specific enzymes from rat and pig

Molecule	isoelectric point ([1]; calculated for human enolases)	isoelectric point [1, 4]	further results
human α-enolase: α-enolase purified from human kidney	7.38	–	–
substitution of E^197 in N^193VIKEKYGKDATN^205-GG-pin with alanine: α-enolase epitope 2 peptide with E^197 substituted with alanine	–	–	loss of immunological activity on substitution [2]: 70%
B1	7.72	–	storage stability [3]: several months without loss of activity
B2	–	7.45	–
B3	–	8.8–9.0	–

From publication PMC6005794, “Experimental and bioinformatic approach to identifying antigenic epitopes in human α- and β-enolases” (Biochemistry and Biophysics Reports, 2018)
